Experimental findings from paper PMC9049607 are described below.

What all share (assay): purified protein
Substrate in series [1]: CC(C)=CCC/C(C)=C/C=O
Particulars: 0.2 mM NADH, 100 mM PBS pH 8.0, 30°C.

Substrate in series [2]: NC(=O)C1=CN([C@@H]2O[C@H](COP(=O)(O)OP(=O)(O)OC[C@H]3O[C@@H](n4cnc5c(N)ncnc54)[C@H](O)[C@@H]3O)[C@@H](O)[C@H]2O)C=CC1
Particulars: 5 mM (E/Z)-citral, 100 mM PBS pH 8.0, 30°C, varied: cofactor.

Substrate in series [3]: CC(C)=CCC/C(C)=C\C=O
To be noted: 0.2 mM NADH, 100 mM PBS pH 8.0, 30°C.

B1: OYE2p (Saccharomyces cerevisiae S288C) (protein)
chain: PFVKDFKPQALGDTNLFKPIKIGNNELLHRAVIPPLTRMRAQHPGNIPNRDWAVEYYAQRAQRPGTLIITEGTFPSPQSGGYDNAPGIWSEEQIKEWTKIFKAIHENKSFAWVQLWVLGWAAFPDTLARDGLRYDSASDNVYMNAEQEEKAKKANNPQHSITKDEIKQYVKEYVQAAKNSIAAGADGVEIHSANGYLLNQFLDPHSNNRTDEYGGSIENRARFTLEVVDAVVDAIGPEKVGLRLSPYGVFNSMSGGAETGIVAQYAYVLGELERRAKAGKRLAFVHLVEPRVTNPFLTEGEGEYNGGSNKFAYSIWKGPIIRAGNFALHPEVVREEVKDPRTLIGYGRFFISNPDLVDRLEKGLPLNKYDRDTFYKMSAEGYIDYPTYEEALKLGWDKN
Regarding B1, in series [1], the Km (commonly the concentration of substrate that gives half-maximal velocity) amounted to 120 ± 25 µM; the kcat (as a rule, the number of substrate molecules converted per active site and unit of time at saturation) came out at 0.213 ± 0.008 s⁻¹; the kcat/Km (in general, the second-order rate constant that governs catalysis at low substrate concentration) worked out at 1780 ± 305 M⁻¹ s⁻¹. For the same protein, the Km in series [2] was 14 ± 4 µM. Further, in series [3], the Michaelis constant (Km) was determined as 310 ± 47 µM, the kcat worked out at 0.13 ± 0.008 s⁻¹ and the kcat/Km worked out at 421 ± 39 M⁻¹ s⁻¹.
